Measurements from patent US20100305025.

T1: human placental RNase inhibitor, P13489
T1 chain: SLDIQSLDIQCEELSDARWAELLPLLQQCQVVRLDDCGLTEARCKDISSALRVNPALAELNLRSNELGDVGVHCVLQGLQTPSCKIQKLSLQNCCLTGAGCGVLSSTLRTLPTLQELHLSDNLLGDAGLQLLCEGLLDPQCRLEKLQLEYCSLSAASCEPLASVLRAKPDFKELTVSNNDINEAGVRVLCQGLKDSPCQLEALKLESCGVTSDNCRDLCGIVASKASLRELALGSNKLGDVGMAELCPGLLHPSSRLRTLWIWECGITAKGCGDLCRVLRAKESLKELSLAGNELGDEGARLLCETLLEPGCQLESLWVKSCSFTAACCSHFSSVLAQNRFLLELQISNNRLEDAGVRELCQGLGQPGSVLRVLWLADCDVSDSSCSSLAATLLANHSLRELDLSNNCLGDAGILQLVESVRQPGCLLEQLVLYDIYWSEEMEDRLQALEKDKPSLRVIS

B1: recombinant carboxy-terminal FLAG-tagged chicken (Gallus gallus) leukocyte RNase A-1 (protein)
chain: VPTYQDFLRTHVDFPKTSFPNIAAYCNVMMVRRGINVHGRCKSLNTFVHTDPRNLNTLCINQPNRALRTTQQQLPVTDCKLIRSHPTCSYTGNQFNHRVRVGCWGGLPVHLDGTFP
B2: recombinant carboxy-terminal FLAG-tagged chicken (Gallus gallus) leukocyte RNase A-2 (protein)
chain: VPTYQDFLYKHMDFPKTSFPSNAAYCNVMMVRRGMTAHGRCKSFNTFVHTDPRNLNTLCINQPDQALRTTRRHFRITDCKLIRSHPTCRYSGNQFNRRVRVGCRGGLPVHLDGTSP

Target: T1, human placental RNase inhibitor, P13489

| Protein | RNase activity (yeast tRNA substrate) |
| --- | --- |
| B1 | completely inhibited RNase activity |
| B2 | completely inhibited RNase activity |
